Data on one variant can be found in PMC8857485, “Prostate secretory protein 94 inhibits sterol binding and export by the mammalian CAP protein CRISP2 in a calcium-sensitive manner” (The Journal of Biological Chemistry, 2022).

B1: CRISP2 (cysteine-rich secretory protein 2), C-terminal polyhistidine tag [modified: RED-tris-NTA fluorescent label on the His tag; RED-tris-NTA fluorescent label on the His tag] [human] / prostate secretory protein of … (parent)
chain 1: KDPAFTALLTTQLQVQREIVNKHNELRKAVSPPASNMLKMEWSREVTTNAQRWANKCTLQHSDPEDRKTSTRCGENLYMSSDPTSWSSAIQSWYDEILDFVYGVGPKSPNAVVGHYTQLVWYSTYQVGCGIAYCPNQDSLKYYYVCQYCPAGNNMNRKNTPYQQGTPCAGCPDDCDKGLCTNSCQYQDLLSNCDSLKNTAGCEHELLKEKCKATCLCENKIY
chain 2: SCYFIPNEGVPGDSTRKCMDLKGNKHPINSEWQTDNCETCTCYETEISCCTLVSTPVGYDKDNCQRIFKKEDCKYIVVEKKDPKKTCSVSEWII

The assay covers variants of B1. In words: microscale thermophoresis. The note with it: with prostate secretory protein of 94 amino acids (PSP94), measurements in triplicates, PSP94 titrated (x axis PSP94 [nM]). For orientation: MST reads how a fluorescent partner responds to local heating, with and without ligand.
As to chain 1 KDPAFTALLTTQLQVQREIVNKHNELRKAVSPPASNMLKMEWSREVTTNAQRWANKCTLQHSDPEDRKTSTRCGEPGYMSSDPTSWSSAIQSWYDEILDFVYGVGPKSPNAVVGHYTQLVWYSTYQVGCGIAYCPNQDSLKYYYVCQYCPAGNNMNRKNTPYQQGTPCAGCPDDCDKGLCTNSCQYQDLLSNCDSLKNTAGCEHELLKEKCKATCLCENKIY [chain 1 N76P L77G], the Kd was found to be 4 nM.

Broadly, the Kd is the concentration at which binding is half-saturated.
